Experiment: soluble on expression in E. coli; label from the status in PepcDB or PDB records
For “MSVEAAKNARELLLKEYRAVLSTHSKKWPGFPFGSVVPYCLDAEGRPLILISRIAQHTHNLQADPRCSMLVGERGAEDIQAVGRLTLLAEARQLAEEEVAAAAERYYRYFPESADYHRVHDFDFWVLQPVQWRFIGGFGAIHWLAAERVPLANPFAGEAERGMVEHMNSDHAAAIAHYVELAGLPAHAAAQLAGIDTEGFHLRIGQGLHWLPFPAACGNPGAVRQALVQLARAERWPTVEPEQG”, the “soluble on expression in E. coli” value was “soluble”. For “MDAYPEAEAPPQSIVELVPVLIAVTDGGLRVLTVAQGMLLPNGPLSPLRNSLQAGVKLWVAKQTSQPMGYVEQLYTFVDTHRRNEHGMPVLYVSYLGLVREAADSILHPDAKWQDCYGYFPWEDLRTDGGQRDAVVGRLRIWANSADTEEVRQKRLKRIHLCWGVEPENWSEEYVLQRYEMLYESGLIAEAAEPQANFDFALTGQPMRHDHRRVLATALSRLRAKIKYRPVIFELMPPEFTLLQLQNSVEAISGRLLHKQNFRRQIQQQNLIEPSDTGVSGSKGRPAQLCRFRDDVLPDRLISDIGLPLGSR”, the “soluble on expression in E. coli” value was “not soluble”. For “KPTEPHQFAQQVLYDLDQQPRIIAQLSHQQPMLLYFWGTWCRYCQFTSAAVQQLANEKIPILTIALKSGDEQDISNNYLTQQKYTFPTINDPDGNIAKNWTIQATPTIIFIKDGKIVEYTTGLTSYWGLKSRLW”, the “soluble on expression in E. coli” value was “not soluble”. With “MSYLLALDAGTGSIRAVIFDLNGRQLAVGQAEWKHLSVDNVPGSMEFDLTTNWQLACQCIRQALDAARLSAADIQSVACCSMREGIVLYDRNGEAIWACANVDARASREVAELKEIHDFRFESEVYEVSGQTLALSAMPRLLWLAHHRPDIYRKAATITMISDWLAAKLSGELAVDPSNAGTTGMLDLFSRDWRPALLDMAGLRADMLSPVKETGTLLGAVTEAAAQQSGLRAGTPVVMGGGD” the “soluble on expression in E. coli” value was “not soluble”. In the case of “SLRYASDFEEIAVLGQGAFGQVVKARNALDSRYYAIKKIRHTEEKLSTILSEVMLLASLNHQYVVRYYAAWLERRNFVKPMTAVKKKSTLFIQMEYCENRTLYDLIHSENLNQQRDEYWRLFRQILEALSYIHSQGIIHRDLKPMNIFIDESRNVKIGDFGLAKNVHRSLDILKLDSQNLPGSSDNLTSAIGTAMYVATEVLDGTGHYNEKIDMYSLGIIFFEMIYPFSTGMERVNILKKLRSVSIEFPPDFDDNKMKVEKKIIRLLIDHDPNKRPGARTLLNSGWLPVKHQDEVIKEALKSL”, the “soluble on expression in E. coli” value is reported as “soluble”. With “MADAAPQLGKRKRELDVEEAHAASTEEKEAGVGNGTCAPVRLPFSGFRLQKVLRESARDKIIFLHGKVNEASGDGDGEDAVVILEKTPFQVEQVAQLLTGSPELQLQFSNDIYSTYHLFPPRQLNDVKTTVVYPATEKHLQKYLRQDLRLIRETGDDYRNITLPHLESQSLSIQWVYNILDKKAEADRIVFENPDPSDGFVLIPDLKWNQQQLDDLYLIAICHRRGIRSLRDLTPEHLPLLRNILHQGQEAILQRYRMKGDHLRVYLHYLPSYYHLNVHFTALGFEAPGSGVERAHLLAEVIENLECDPRHYQQRTLTFALRADDPLLKLLQEAQQS” the “soluble on expression in E. coli” value was “soluble”. With “MGSDKIHHHHHHVARLNAKQMEVFVAVMTHGSITAAGQRLNVSQPAVSRMIERFEQEAGFVAFERRRGKLVPTPEAEIFFAEVSQVYRGLDYLNEVAREIGTTRRGYLRVGVFPAFAEGWITERITRYVAGREELLTSLEPMSTDSVIEAVSRQTIDLGIALRASDREGLRSEEISSSEIVCILPKGHRLTGRPVLQPTDLSGEDFISMAAKVKARTSIDAVFDSSGVERRIRAETPWASTVCHMVAHGLGVGLVIRESAFEFAHLGYHIAAFKPRIDYRAYLITSTARPLSTAAKGFRDMLLLEFNQAKKAPRASKRWPT” the “soluble on expression in E. coli” value was “not soluble”. With “MSLSGIYEIAILGRATWQLHSLNNEGTVGNVTEPRSVRIIDPNTKKAVTTDGISGEMLKHIHTEIMWTLDDKNNLCDACKVLNPEKFNFAIKSKKATPKDVEDALKQALNTCDICDVQGFLLERPTASRKSTVEFGWALGIPEVYRDIHTHARHALGEKGKREKTEESEEEVGGVSTQMVYHRPTRSGVYAIISVFQPWRIGLNEAKQDKYTYDANDNARERRYQLALKAYPLLFARPEGAMTTTRLPHVEDFSGVIVYSTKPIPVPIISPLKSNYVDEVKTIVENIDDSLKVAEFNGIAEFAMKIGELIKNKPYKMEFEGHHHHHH” the “soluble on expression in E. coli” value was “soluble”. In the case of “QKPKLLYCSNGGYFLRIFPDGKVDGTRDRSDPYIQLQFYAESVGEVYIKSLETGQYLAMDSDGQLYASQSPSEECLFLERLEENNYNTYKSKVHADKDWFVGIKKNGKTKPGSRTHFGQKAILFLPLPVSSD”, the “soluble on expression in E. coli” value is reported as “soluble”. For “MGSDKIHHHHHHMKNNRINIHSQQYMETMARLMSEALESPEGMRALAAAIAAPIEQEIKRKEISSLLLTRHTLPKGERPIYQKKPTVKAHWISKDGEAQEQELGKDEVEFPTNRIHSNPMVDISVLKHGNIGTLMDIQTGAASSIRKEMDSRTITVISSAIPAANTVEVTGDKVTEEALNEAISIIEDLELSVKYIVLRGRRFNDMRSWNLDPQTKLELRQKGVIKNYGTGGILLTAAMPMDEIIIVPDEEVGKLPVRENLKTESIDQKTRFKTGWLVWSEIGQGITRPDILAKVKLVP”, the “soluble on expression in E. coli” value was “not soluble”. For “MGSDKIHHHHHHMVMLKMKKTIAYYRSSTDLQENSIEMQQIKAFEYSMKKRITIDEEYVDKDVSARKKTLMQRPGMNKLMKEIEAGVVGSIIVYKRDRFARKLQEHMQLYRLFQEYDIDVYFSSDSEVQMNYSPIGEYIEAILGSICENEGSLIAQRIQETKIAKFLSGKYAGNLPYGYEKGEPNADGQVNILQVSHEIEVVKEIYNALLNKECKSIQELCNDLNEKYKTEETKDWDQSKVVNIVKNPIYHGLRVMNFGSKEYKKAYKNIKVVEKTDWDIANEQLDKMIVKRETGKETIQFLLENILYCHECQKPLIAKKRMRSYQDYYIYECKEHDVCVEAGYIEVEILKHAKTFFHRLLDENFNELYERSTYQNVRKIKKLIGSQEMIIKGVTKKVGKLIDQWLNCQKMQREHEGNDCAKCQSNQHIGEIKEANEILKSEKRKLQHLDMRLYEIKNFKEKAKEWITHLECPKDILLLEKEERKRFYRDMIHCIQVDSWEYHIVFKHPFMLIQEVHQNSETV”, the “soluble on expression in E. coli” value was “not soluble”. With “MAGGPSALTLIARTSATGAQPLSLRARFPRTRPPMKKIPLAAADPDRLDTWVKYREGLCGECNATCCTLPVEVRIDDLIRMRLVDEFEREEPAKRIAKRLEKDGVIEHFNHKREIFTLTRMANGDCLYLDRKTRLCTIYARRPDTCRNHPRIGPRPGYCAYRPRLEHHHHHH” the “soluble on expression in E. coli” value was “not soluble”. For “DSLDEQRSRYAQIKQAWDNRQMDVVEQMMPGLKDYPLYPYLEYRQITDDLMNQPAVTVTNFVRANPTLPPARTLQSRFVNELARREDWRGLLAFSPEKPGTTEAQCNYYYAKWNTGQSEEAWQGAKELWLTGKSQPNACDKLFSVWRASGKQDPLAYLERIRLAMKAGNTGLVTVLAGQMPADYQTIASAIISLANNPNTVLTFARTTGATDFTRQMAAVAFASVARQDAENARLMIPSLAQAQQLNEDQIQELRDIVAWRLMGNDVTDEQAKWRDDAIMRSQSTSLIERRVRMALGTGDRRGLNTWLARLPMEAKEKDEWRYWQADLLLERGREAEAKEILHQLMQQRGFYPMVAAQRIGEEYELKIDKAPQNVDSALTQGPEMARVRELMYWNLDNTARSEWANLVKSKSKTEQAQLARYAFNNQWWDLSVQATIAGKLWDHLEERFPLAYNDLFKRYTSGKEIPQSYAMAIARQESAWNPKVKSPVGASGLMQIMPGTATHTVKMFSIPGYSSPGQLLDPETNINIGTSYLQYVYQQFGNNRIFSSAAYNAGPGRVRTWLGNSAGRIDAVAFVESIPFSETRGYVKNVLAYDAYYRYFMGDKPTLMSATEWGRRY”, the “soluble on expression in E. coli” value was “soluble”. With “MSSQSSSADGKVTLKFFHRWPKEPEKSYFEEVVKEFEKDHPDIDIQIEAVLNDSYKDKIKVMLGTTSPPDIYFSWSDEFAFKFIRGNKALDLSSYYKNDTDWSSQLVQSQITPFTYENKQYGVPWQMDAKSFFYNKDIFQKLNLDPPKTWDELIDVSKKLKEHGYTPISFGTKATWTISHYIGTLNQRMVDEKTREKDYNAKTGEFTDEGYVKALEKLQELMPYFNKHVNSVDHEYVRQQFKSGKSAMIYAETAEIKLVEPVNLGMFPFPEISGQKGSSEALTGAPEGFMISSRTKHPKEAMEFLQFLTSKRMGEKLVKDVGKYSAVQGTATEENATAIQREAVQHIVDAKSMVPWFDMDVDVEVADAYLTGVQQMLGGDMTPQQVMKAVQKAAKQVRASAELEHHHHHH” the “soluble on expression in E. coli” value was “soluble”. For “MGSDKIHHHHHHMSELRQQCLWEHVSKPTVAAQALAGEHKADVCVIGGGITGLSAAIHLLEQGKSVIVLEAWKIGHGGSGRNVGLVNAGTWIRPDDVEATLGQKQGSRLNKVLGEAPAEVFAMIERLGIDCQAQHKGTLHMAHNATGIADLEARHEQWRRRGADVELLTGAQCQEYCGTDKISAALLDRRAGTINPMGYTQGLAAAVTRLGGKIFQQSSVEGLEREGDGWRVKTARGAVRAEKVVISTGAYTEGDWSNLQKQFFRGYYYQVASKPLQGIAADKVLPHGQGSWDTRTVLSSIRRDDQGRLLLGSLGRVDNKPAWFVRSWADRIQSHYYPELGKVEWEMHWTGCIDFTPDHLMRLFEPAPGLVAVTGYNGRGNTTGTVIGRAFAEFLLKGEADSLPIPFSPMSGVSAPSLRTAFYESGFSLYHAGQCLRVVL”, the “soluble on expression in E. coli” value was “not soluble”. In the case of “MLDGLFNWAIARNIMNYNPLPTDKPNRPQGFIPYIYKREELKKIIDKSMTYRSFYTTFYPETIRGIIMLTYLWGLRPSETLGIEMADVHLGTDNYIVIKQMKFYNTRIVTFNDRSLLL”, the “soluble on expression in E. coli” value is reported as “not soluble”. For “MASGVTVNDEVIKVFNDMKVRKSSTPEEIKKRKKAVLFCLSDDKKQIIVEEAKQILVGDIGDTVEDPYTAFVKLLPLNDCRYALYDATYETKESKKEDLVFIFWAPESAPLKSKMIYASSKDAIKKKFTGIKHEWQVNGLDDIKDRSTLGEKLGGNVVVSLEGKPL”, the “soluble on expression in E. coli” value was “soluble”. In the case of “MCTALSPKVRSGPGLSDMHQYSQWLASRHEANLLPMKEDLALWLTNLLGKEITAETFMEKLDNGALLCQLAETMQEKFKESMDANKPTKNLPLKKIPCKTSAPSGSFFARDNTANFLSWCRDLGVDETCLFESEGLVLHKQPREVCLCLLELGRIAARYGVEPPGLIKLEKEIEQEETLSAPSPSPSPSSKSSGKKSTGNLLDDAVKRISEDPPCKCPNKFCVERLSQGRYRVGEKILFIRMLHNKHVMVRVGGGWETFAGYLLKHDPCRMLQISRVDGKTSPIQSKSPTLKDMNPDNYLVVSASYKAKKEIKLEHHHHHH”, the “soluble on expression in E. coli” value is reported as “not soluble”. With “MGSDKIHHHHHHMRKDKNGTQEPKAKYRVRNWAAYNAGLINRGNITMWIGDDALANMPDTEPTRGRSRLYSDALIQALLGLKTVFHLPLRALQGFAQSLRDLAFAELPVPNYTTVCRRAQALQVKLPVIHSDEPLHLVVDSTGAKVCGEGEWKVRQHGYSKRRTWRKVHLALDANTGQLRAALMTHQDVADGEVLPELLEQISADESIDTIGGDGAYDTQACYASITARGALPSIPPREGAVHWPTTTPGASRRNAALDAIAQGSRREWKQQSGYHRRSLAENAMYRLKTLTGPCLWARRTDTQATEVAVRVGVLNRMAELSRPQSVRIARDHEQRHHFVLTPDLCNNVHSSAERRQGRVSCAMHATI” the “soluble on expression in E. coli” value was “not soluble”. For “MNLIKEDMRVKVHMEGNVNGHAFVIEGEGKGKPYEGTQTANLTVKEGAPLPFSYDILTTAVHYGNRVFTKYPEDIPDYFKQSFPEGYSWERTMTFEDKGICTIRSDISLEGDCFFQNVRFKGTNFPPNGPVMQKKTLKWEPSTEKLHVRDGLLVGNINMALLLEGGGHYLCDFKTTYKAKKVVQLPDAHFVDHRIEILGNDSDYNKVKLYEHAVARYSPLPSQVWHHHHHH”, the “soluble on expression in E. coli” value was “soluble”.

From the DeepSol protein solubility set
